# According to publication PMC7615141, “ADAMTS-7 modulates atherosclerotic plaque formation by degradation of TIMP-1” (Circulation research, 2023):
# B1: untagged, recombinant TIMP-1 (natural protein)
# chain: not shown
# notes: The supplier may be named in the Supplemental Material; also called untagged TIMP-1; source: recombinant, untagged
# B2: ADAMTS-7-FLAG (enzyme, human, UniProt Q9UKP4 28-1686, looked up)
# chain: APGPAPGRATEGRAALDIVHPVRVDAGGSFLSYELWPRALRKRDVSVRRDAPAFYELQYRGRELRFNLTANQHLLAPGFVSETRRRGGLGRAHIRAHTPACHLLGEVQDPELEGGLAAISACDGLKGVFQLSNEDYFIEPLDSAPARPGHAQPHVVYKRQAPERLAQRGDSSAPSTCGVQVYPELESRRERWEQRQQWRRPRLRRLHQRSVSKEKWVETLVVADAKMVEYHGQPQVESYVLTIMNMVAGLFHDPSIGNPIHITIVRLVLLEDEEEDLKITHHADNTLKSFCKWQKSINMKGDAHPLHHDTAILLTRKDLCAAMNRPCETLGLSHVAGMCQPHRSCSINEDTGLPLAFTVAHELGHSFGIQHDGSGNDCEPVGKRPFIMSPQLLYDAAPLTWSRCSRQYITRFLDRGWGLCLDDPPAKDIIDFPSVPPGVLYDVSHQCRLQYGAYSAFCEDMDNVCHTLWCSVGTTCHSKLDAAVDGTRCGENKWCLSGECVPVGFRPEAVDGGWSGWSAWSICSRSCGMGVQSAERQCTQPTPKYKGRYCVGERKRFRLCNLQACPAGRPSFRHVQCSHFDAMLYKGQLHTWVPVVNDVNPCELHCRPANEYFAEKLRDAVVDGTPCYQVRASRDLCINGICKNVGCDFEIDSGAMEDRCGVCHGNGSTCHTVSGTFEEAEGLGYVDVGLIPAGAREIRIQEVAEAANFLALRSEDPEKYFLNGGWTIQWNGDYQVAGTTFTYARRGNWENLTSPGPTKEPVWIQLLFQESNPGVHYEYTIHREAGGHDEVPPPVFSWHYGPWTKCTVTCGRGVQRQNVYCLERQAGPVDEEHCDPLGRPDDQQRKCSEQPCPARWWAGEWQLCSSSCGPGGLSRRAVLCIRSVGLDEQSALEPPACEHLPRPPTETPCNRHVPCPATWAVGNWSQCSVTCGEGTQRRNVLCTNDTGVPCDEAQQPASEVTCSLPLCRWPLGTLGPEGSGSGSSSHELFNEADFIPHHLAPRPSPASSPKPGTMGNAIEEEAPELDLPGPVFVDDFYYDYNFINFHEDLSYGPSEEPDLDLAGTGDRTPPPHSHPAAPSTGSPVPATEPPAAKEEGVLGPWSPSPWPSQAGRSPPPPSEQTPGNPLINFLPEEDTPIGAPDLGLPSLSWPRVSTDGLQTPATPESQNDFPVGKDSQSQLPPPWRDRTNEVFKDDEEPKGRGAPHLPPRPSSTLPPLSPVGSTHSSPSPDVAELWTGGTVAWEPALEGGLGPVDSELWPTVGVASLLPPPIAPLPEMKVRDSSLEPGTPSFPTPGPGSWDLQTVAVWGTFLPTTLTGLGHMPEPALNPGPKGQPESLSPEVPLSSRLLSTPAWDSPANSHRVPETQPLAPSLAEAGPPADPLVVRNAGWQAGNWSECSTTCGLGAVWRPVRCSSGRDEDCAPAGRPQPARRCHLRPCATWHSGNWSKCSRSCGGGSSVRDVQCVDTRDLRPLRPFHCQPGPAKPPAHRPCGAQPCLSWYTSSWRECSEACGGGEQQRLVTCPEPGLCEEALRPNTTRPCNTHPCTQWVVGPWGQCSGPCGGGVQRRLVKCVNTQTGLPEEDSDQCGHEAWPESSRPCGTEDCEPVEPPRCERDRLSFGFCETLRLLGRCQLPTIRTQCCRSCSPPSHGAPSRGHQRVARR
# notes: ADAMTS-7, human; also called ADAMTS-7-FLAG-cryptate; TS7-FLAG-Crypt; source: HEK293, transfected, in lysate
# Columns and labels:
# ADAMTS-7-FLAG = target: B2; assay: AlphaScreen or HTRF; competition in the time-resolved FRET assay: untagged recombinant TIMP-1 (400 or 800 ng) added to ADAMTS-7-FLAG and TIMP-1-HA in lysates; 665/620 nm ratio; seven independent experiments; details: one partner purified
# [1] = target: T1, TIMP-1-HA (tissue inhibitor of metalloproteinases 1 with HA tag) (human, UniProt P01033 24-207); assay: AlphaScreen or HTRF; the pair ADAMTS-7-FLAG and TIMP-1-HA in the competition experiment (lysates; 0 ng untagged TIMP-1 as reference); 665/620 nm ratio; seven independent experiments; details: partners not purified
# T1 construct: source: HEK293, transfected, in lysate; also in the supernatant
# [2] = target: T1, TIMP-1-HA (tissue inhibitor of …); assay: AlphaScreen or HTRF; time-resolved FRET; lysates of HEK293 cells overexpressing ADAMTS-7-FLAG and TIMP-1-HA incubated with anti-FLAG-cryptate and anti-HA-d2 antibodies; excitation 337 nm; 665/620 nm ratio as readout; details: partners not purified
# T1 sequence (P01033 24-207): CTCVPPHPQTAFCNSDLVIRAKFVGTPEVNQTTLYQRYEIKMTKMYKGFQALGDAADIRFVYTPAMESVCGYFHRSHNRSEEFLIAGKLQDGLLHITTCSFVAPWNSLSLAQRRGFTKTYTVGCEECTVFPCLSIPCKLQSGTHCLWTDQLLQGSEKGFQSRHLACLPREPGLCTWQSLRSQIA
Binder,FRET ratio (665/620) of ADAMTS-7-FLAG with TIMP-1-HA in the presence of 400 ng untagged TIMP-1 (ADAMTS-7-FLAG),FRET ratio (665/620) of ADAMTS-7-FLAG with TIMP-1-HA in the presence of 800 ng untagged TIMP-1 (ADAMTS-7-FLAG),FRET ratio (665/620) with 0 ng untagged TIMP-1 [1],FRET ratio (665/620) [2]
B1,4420 665/620 ratio,3570 665/620 ratio,,
B2,,,4950 665/620 ratio,5480 665/620 ratio
